# According to patent US20130245385A1:
# Target: sHLA-A2 (soluble class I HLA-A2) (human)
# Experiment: 65 ml class I HLA SHARC, 24.4 mg W6/32 at 97 µg/ml in PBS
substance,measurement,value
W6/32 pan class I HLA monoclonal antibody,antibody recovered in the elution,8 mg
same,antibody that passed through the column,11.7 mg
